The values below come from US20250019438A1 (AstraZeneca / MedImmune, published 2025).

Changes are numbered by the printed parent chain.

This test has as its target Biotinylated recombinant human CD3εδ (Acro Biosystems, CDD-H82W6) (human) (UniProt P07766). Briefly: Octet BLI, biotinylated CD3εδ on streptavidin sensors, 1:1 model. (Biolayer interferometry detects binding as a change in optical thickness at a sensor tip.)

Chain of Biotinylated recombinant human CD3εδ (Acro Biosystems, CDD-H82W6) (human) (P07766 23-126, stated change not applied, chain 1 of 2): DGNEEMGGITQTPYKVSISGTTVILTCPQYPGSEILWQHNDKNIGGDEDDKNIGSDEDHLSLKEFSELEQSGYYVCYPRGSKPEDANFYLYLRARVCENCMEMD
Chain of Biotinylated recombinant human CD3εδ (Acro Biosystems, CDD-H82W6) (human) (P04234 22-105, stated change not applied, chain 2 of 2, further chain): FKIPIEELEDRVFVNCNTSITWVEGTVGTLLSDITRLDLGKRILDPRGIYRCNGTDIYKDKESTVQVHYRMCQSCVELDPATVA

B1: EGFR-CD3 DuetMab with anti-CD3 variant AZ Vκ 29 + AZ VH SN75 (bispecific antibody, part only; not given: anti-EGFR arm, constant regions, V domains shown, not shown: another chain or arm of the molecule; a dimerising Fc or GST; small tags and cut ends)
VH: EVQLVESGGALVKPGGSLRLSCAASGFTFSNAWMHWVRQAPGKQLEWVAQIKDRSQTYATYYAESVKGRFTISRDDSKNTLYLQMNSLKTEDTAVYYCRGVYYANAPFDYWGQGTLVTVSS
VL: DIVMTQSPLSLPVTPGEPASISCRSSQSLVHNTGNTYLSWYLQKPGQSPQSLIYKVSNRASGVPDRFSGSGSGTDFTLKISRVEAEDVGVYYCGQGTQFPFTFGSGTKVEIK
Turning to B1, the Kd (usually a measure of binding affinity in units of concentration) was determined as 1010 nM; the dissociation rate constant (koff) (in general, the rate constant with which the complex falls apart) was 0.0282 s⁻¹; the kon – broadly, the second-order rate constant of association – was found to be 27900 M⁻¹ s⁻¹.

B2: EGFR-CD3 DuetMab with anti-CD3 variant AZ Vκ 17 + AZ VH R82 (bispecific antibody, part only; not given: anti-EGFR arm, constant regions, V domains shown, not shown: another chain or arm of the molecule; a dimerising Fc or GST; small tags and cut ends)
VH: B1 VH with S30T, N31R, A106T
VL: B1 VL with F99A
Consider B2, for which the Kd turned out to be 550 nM, the dissociation rate constant (koff) came out at 0.00928 s⁻¹ and the kon was found to be 16900 M⁻¹ s⁻¹.

B3: EGFR-CD3 DuetMab with anti-CD3 variant AZ Vκ 29 + AZ VH SN82 (bispecific antibody, part only; not given: anti-EGFR arm, constant regions, V domains shown, not shown: another chain or arm of the molecule; a dimerising Fc or GST; small tags and cut ends)
VH: B1 VH with A106T
VL: B1 VL
With B3, the Kd turned out to be 1860 nM, the off-rate (koff) came out at 0.0422 s⁻¹ and the on-rate (kon) stood at 22700 M⁻¹ s⁻¹.

B4: EGFR-CD3 DuetMab with anti-CD3 variant AZ Vκ 17 + AZ VH SN82 (bispecific antibody, part only; not given: anti-EGFR arm, constant regions, V domains shown, not shown: another chain or arm of the molecule; a dimerising Fc or GST; small tags and cut ends)
VH: B1 VH with A106T
VL: B1 VL with F99A
Take B4: the dissociation constant Kd was 1640 nM, the koff was 0.0149 s⁻¹ and the on-rate constant (kon) was determined as 9100 M⁻¹ s⁻¹.

B5: EGFR-CD3 DuetMab with anti-CD3 variant AZ Vκ 17 + AZ VH SN79 (bispecific antibody, part only; not given: anti-EGFR arm, constant regions, V domains shown, not shown: another chain or arm of the molecule; a dimerising Fc or GST; small tags and cut ends)
VH: B1 VH with N105V, A106T
VL: B1 VL with F99A
Consider B5, for which the dissociation constant Kd was found to be 2050 nM, the koff amounted to 0.032 s⁻¹ and the kon worked out at 15600 M⁻¹ s⁻¹.

B6: EGFR-CD3 DuetMab with anti-CD3 variant AZ Vκ 29 + AZ VH E79 (bispecific antibody, part only; not given: anti-EGFR arm, constant regions, V domains shown, not shown: another chain or arm of the molecule; a dimerising Fc or GST; small tags and cut ends)
VH: B1 VH with S30T, N31E, N105V, A106T
VL: B1 VL
Regarding B6, the Kd was found to be 4580 nM, the koff was found to be 0.118 s⁻¹ and the kon is 25800 M⁻¹ s⁻¹.

B7: EGFR-CD3 DuetMab with anti-CD3 variant AZ Vκ 17 + AZ VH R79 (bispecific antibody, part only; not given: anti-EGFR arm, constant regions, V domains shown, not shown: another chain or arm of the molecule; a dimerising Fc or GST; small tags and cut ends)
VH: B1 VH with S30T, N31R, N105V, A106T
VL: B1 VL with F99A
As to B7, the equilibrium dissociation constant (Kd) was 734 nM, the koff was 0.018 s⁻¹ and the kon amounted to 24600 M⁻¹ s⁻¹.

B8: EGFR-CD3 DuetMab with anti-CD3 variant AZ Vκ 29 + AZ VH SN79 (bispecific antibody, part only; not given: anti-EGFR arm, constant regions, V domains shown, not shown: another chain or arm of the molecule; a dimerising Fc or GST; small tags and cut ends)
VH: B1 VH with N105V, A106T
VL: B1 VL
With B8, the dissociation constant (Kd) was 2670 nM, the koff stood at 0.114 s⁻¹ and the association rate constant (kon) amounted to 42800 M⁻¹ s⁻¹.

B9: EGFR-CD3 DuetMab with anti-CD3 variant AZ Vκ 17 + AZ VH E75 (bispecific antibody, part only; not given: anti-EGFR arm, constant regions, V domains shown, not shown: another chain or arm of the molecule; a dimerising Fc or GST; small tags and cut ends)
VH: B1 VH with S30T, N31E
VL: B1 VL with F99A
Regarding B9, the dissociation constant Kd was determined as 2790 nM, the koff came to 0.0198 s⁻¹ and the kon turned out to be 7100 M⁻¹ s⁻¹.

B10: EGFR-CD3 DuetMab with anti-CD3 variant AZ Vκ 29 + AZ VH E82 (bispecific antibody, part only; not given: anti-EGFR arm, constant regions, V domains shown, not shown: another chain or arm of the molecule; a dimerising Fc or GST; small tags and cut ends)
VH: B1 VH with S30T, N31E, A106T
VL: B1 VL
On to B10, for which the Kd is 5000 nM, the off-rate (koff) amounted to 0.0755 s⁻¹ and the on-rate (kon) is 15100 M⁻¹ s⁻¹.

B11: EGFR-CD3 DuetMab with anti-CD3 variant AZ Vκ 29 + AZ VH E75 (bispecific antibody, part only; not given: anti-EGFR arm, constant regions, V domains shown, not shown: another chain or arm of the molecule; a dimerising Fc or GST; small tags and cut ends)
VH: B1 VH with S30T, N31E
VL: B1 VL
Turning to B11, the Kd turned out to be 2220 nM, the koff is 0.0404 s⁻¹ and the kon is 18200 M⁻¹ s⁻¹.

B12: EGFR-CD3 DuetMab with anti-CD3 variant AZ Vκ 17 + AZ VH R75 (bispecific antibody, part only; not given: anti-EGFR arm, constant regions, V domains shown, not shown: another chain or arm of the molecule; a dimerising Fc or GST; small tags and cut ends)
VH: B1 VH with S30T, N31R
VL: B1 VL with F99A
Regarding B12, the dissociation constant (Kd) is 266 nM, the off-rate constant (koff) came out at 0.00644 s⁻¹ and the on-rate (kon) is 24200 M⁻¹ s⁻¹.

B13: EGFR-CD3 DuetMab with anti-CD3 variant AZ Vκ 17 + AZ VH SN75 (bispecific antibody, part only; not given: anti-EGFR arm, constant regions, V domains shown, not shown: another chain or arm of the molecule; a dimerising Fc or GST; small tags and cut ends)
VH: B1 VH
VL: B1 VL with F99A
B13: the Kd stood at 853 nM, the off-rate (koff) was 0.00923 s⁻¹ and the on-rate (kon) was 10800 M⁻¹ s⁻¹.
